Reference: FireProtDB (doi:10.1021/bi9707180)

Conditions: Aspergillus oryzae (strain ATCC 42149 / RIB 40), 0 °C, Urea, CD, reversible: yes, whole UniProt chain shown

B1: Guanyl-specific ribonuclease T1 wild type, P00651 (protein)
chain: MMYSKLLTLTTLLLPTALALPSLVERACDYTCGSNCYSSSDVSTAQAAGYQLHEDGETVGSNSYPHKYNNYEGFDFSVSSPYYEWPILSSGDVYSGGSPGADRVVFNENNQLAGVITHTGASGNNFVECT
With B1 the denaturant m value (pH 2.5, glycine 30 mM) was 1.58 kcal/mol/M, the “denaturant midpoint (higher = more stable)” value (pH 2.5, glycine 30 mM) was 2.78 M and the denaturant m value (pH 7, MOPS 30 mM) was 1.28 kcal/mol/M. For the same protein, the “denaturant midpoint (higher = more stable)” value (pH 7, MOPS 30 mM) was 4.32 M.
